Measurements: patent US20090123479A1 (published 2009)
Where two headings read alike, the source gives them in different places. Blank lines part the entries; values can stand above or below the binder they belong to.

What was measured:
[1] = biological target: T1, recombinant human IL-23 (human, UniProt Q9NPF7 20-189; P29460 23-328); test: SPR (Biacore T100), purified antibody captured on anti-human IgG, IL-23 analyte (different source of IL-23), 1:1 model
T1 construct: also called hIL-23
T1 sequence 1: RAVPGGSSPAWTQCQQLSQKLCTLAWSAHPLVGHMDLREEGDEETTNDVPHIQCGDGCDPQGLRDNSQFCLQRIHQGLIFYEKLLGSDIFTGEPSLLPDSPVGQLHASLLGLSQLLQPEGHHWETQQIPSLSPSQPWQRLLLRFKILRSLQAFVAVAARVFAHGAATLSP
T1 sequence 2: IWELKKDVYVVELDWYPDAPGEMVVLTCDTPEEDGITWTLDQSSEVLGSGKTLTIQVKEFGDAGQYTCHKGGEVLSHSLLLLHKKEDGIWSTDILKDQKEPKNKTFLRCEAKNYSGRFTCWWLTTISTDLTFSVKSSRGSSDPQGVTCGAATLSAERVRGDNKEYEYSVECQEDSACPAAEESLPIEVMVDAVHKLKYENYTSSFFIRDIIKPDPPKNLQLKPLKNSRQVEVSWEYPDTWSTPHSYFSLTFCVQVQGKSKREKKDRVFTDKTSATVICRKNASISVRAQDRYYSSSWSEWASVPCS
Experimental: Biacore analysis was carried out using a capture surface on a CM5 chip. Anti-human IgG (BR-1008-39) was used as the capturing agent. Anti-human IgG was coupled to a CM5 biosensor chip by primary amine coupling. Humanized antibody was captured on this immobilised surface and defined concentrations of IL-23 were passed over this captured surface. An injection of buffer over the captured antibody surface was used for double-referencing. […] T100 Biacore machine was used to generate the data; all runs were carried out at 25° C. using HBS EP. Data was analysed using the software inherent to the machine and fitted to the 1:1 model of binding. Tables 7 and 8 detail the IL-23 binding analysis carried out on the 8C92H6.HC1LC1 chimera and selected humanized variants in two separate experiments. Data presented in Tables 7 and 8 are from purified antibody samples. The data shown for the humanized variants is representative of a number of runs. The chimeric mAb (8C9H6.HC1LC1) was only run once in each experiment, so data shown for this mAb is from that one run.

[2] = biological target: T1, recombinant human IL-23; test: sandwich ELISA (optimised protocol, OD450): plate coated with anti-human IL-12, antibody pre-incubated with constant human IL-23, bound antibody detected with anti-human IgG gamma chain HRP; purified antibody
Experimental: (§1) Optimised assay conditions: Plates were coated with anti human IL12 at 2 μg/diluent (phosphate buffered saline). 50 μl/well of this mixture was incubated overnight at 4° C. The plates were then washed three times with Phosphate Buffered Saline with 0.05% Tween 20 (PBST). Plates were blocked with 4% skim milk powder (Fluka BioChemika #70166) PBS 200 μl/well for a minimum of 1 hour at room temperature. The plates were then washed three times with Phosphate Buffered Saline+0.05% Tween 20 (PBST). Various concentrations of antibody were incubated in a separate plate with a constant concentration of IL-23 for 1 hour at room temperature. 50 ul of each mixture were transferred to the assay plate and incubated at RT for 1 hr. They were then washed three times with Phosphate Buffered Saline+0.05% Tween 20 (PBST). […] 50 μl/well of the detection antibody was added and incubated at RT for 1 hour. The plates were then washed three times with Phosphate Buffered Saline+0.05% Tween 20 (PBST). 50 μl/well of TMB was added to the plates and incubated at RT for 10 min. 50 μl/well of 1 MH₂SO₄ was added. The plate was read at OD450 nm using the SOftmaxPRO versamax plate reader.

[3] = biological target: T1, recombinant human IL-23; test: SPR (Biacore 3000), purified antibody captured on Protein A or anti-human IgG, IL-23 analyte at 256, 64, 16, 4 nM
Experimental: (§2) Protein A or an anti-human IgG (Biacore BR-1008-39) was immobilised on a Biacore CM5 chip by primary amine coupling in accordance with the manufacturer's instructions. Anti IL-23 antibodies were captured on this surface and after a period of stabilisation, […] was passed over the antibody captured surface and a binding sensorgram was obtained. […] All runs were double referenced with a buffer injection over the captured antibody surface. Data was analysed using the 1:1 model using the software inherent to the Biacore 3000 or T100 depending upon which machine was used to generate kinetics. Analysis was carried out at 25° C. using HBS-EP buffer. Data presented in Tables 3-6 are on tissue culture supernatants of CHO cells transiently expressing the antibody of interest unless otherwise indicated. Data was generated using concentrations of IL-23 (256, 64, 16, 4, 1 and 0.25 nM) The data shown for the humanized variants is representative of a number of runs, The chimeric mAb (8C9H6.HC1LC1) was only run once in each experiment, so data shown for this mAb is from that one run, […]

[4] = biological target: T1, recombinant human IL-23; test: sandwich ELISA (optimised protocol, OD450): plate coated with anti-human IL-12, antibody pre-incubated with constant human IL-23, bound antibody detected with anti-human IgG gamma chain HRP; purified antibody; remark: listed apart in the source
Experimental: as §1

[5] = biological target: T1, recombinant human IL-23; test: SPR (Biacore T100), transient material captured on Protein A or anti-human IgG, IL-23 analyte at 256, 64, 16, 4, 1 nM
Experimental: as §2

- Kd [1]: 0.19 nM
- koff [1]: 0.00024 s⁻¹
- kon [1]: 1.27e+06 M⁻¹ s⁻¹
- EC50 (read off the curve) [2]: ~0.03 nM
B1: A3M0 (antibody, human IgG1, kappa, V domains shown)
VH: QVQLVQSGAEVKKPGSSVKVSCKASGYTFTSYGITWVRQAPGQGLEWMGENYPRSGNTYYNEKFKGRVTITADKSTSTAYMELSSLRSEDTAVYYCARSEFISTVVAPYYYALDYWGQGTLVTVSS
VL: DIVMTQSPDSLAVSLGERATINCKASKKVTIFGSISALHWYQQKPGQPPKLIYNGAKLESGVPDRFSGSGSGTDFTLTISSLQAEDVAVYYCLQNKEVPYTFGGGTKVEIKR
notes: Full length chains; also called humanized mAb A3M0

- Kd [1]: 0.364 nM
- koff [1]: 0.000337 s⁻¹
- kon [1]: 925000 M⁻¹ s⁻¹
- EC50 (read off the curve) [2]: ~0.1 nM
- Kd [3]: 1.8 nM
- koff [3]: 0.00044 s⁻¹
- kon [3]: 240000 M⁻¹ s⁻¹
- EC50 (read off the curve) [4]: ~0.06 nM
- Kd [5]: 1.8 nM
- koff [5]: 0.00038 s⁻¹
- kon [5]: 210000 M⁻¹ s⁻¹
B2: chimeric 8C92H6 HC1LC1 (antibody, V domains shown)
VH: QVQLQQSGAELARPGTSVKLSCKASGYTFTSYGITWVKQRTGQGLEWIGENYPRSGNTYYNEKFKGKATLTADKSSSTAYMELRSLTSEDSAVYFCARCEFISTVVAPYYYALDYWGQGTSLVTVS
VL: DIVLTQSPASLAVSLGQKATISCKASKKVTIFGSISALHWYQQKPGQPPKLIYNGAKLESGVSARFSDSGSQNRSPFGNQLSFTLTIDPVEADDAATYYCLQNKEVPYTFGGGTKLEIKR
notes: Murine variable regions with human constant regions; also called 8C92H6.HC1LC1 Chimera; 8C9 chimera
